Test results reported in patent publication US12460006B2, “Antibodies against integrin alpha 11 beta 1” (Momenta Pharmaceuticals, Inc., priority 2019, dated 2025).
Entries after “also recorded” stand apart in the source; their conditions may differ.

T1: I domain of α11β1 (Homo sapiens, UniProt Q9UKX5)
T1 construct: An in-house generated I domain of α11β1 was used; made in house
T1 sequence (Q9UKX5 164-345 limits assumed): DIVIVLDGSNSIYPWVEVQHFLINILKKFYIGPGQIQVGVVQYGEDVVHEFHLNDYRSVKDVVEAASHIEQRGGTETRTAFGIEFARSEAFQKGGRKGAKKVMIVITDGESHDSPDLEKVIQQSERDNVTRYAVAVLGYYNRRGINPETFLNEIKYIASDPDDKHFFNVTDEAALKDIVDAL

B1: 9-G05: mouse anti-α11β1 mAb; VH SEQ ID NO: 103, VL SEQ ID NO: 104 (antibody, V domains shown)
VH: EVQLQQSGPELVKPGASVKIPCKASGYTFPDYNMDWVKQSHGKSLEWIGYINPDNGGTIYNQKFKGKATLTVDKSSSTAYMELRSLTSEDTAVYYCARLDSSGYGYYAMDYWGQGTSVTVSS
VL: DIVLTQSPASLAVSLGQRATISCRASESVDNYGISFMHWYQQKPGQPPKLLIYRASNLDSEIPARFSGSGSRTDFTLTIDPVETDDVATYYCQQSYKDPRTFGGGTKLEIK
B2: 16E10: rabbit anti-α11β1 mAb; heavy chain SEQ ID NO: 161, light chain SEQ ID NO: 162 (antibody)
heavy: METGLRWLLLVAVLKGVQCQSLEESGGDLVKPGASLTLTCRVSGFSFSSSYYMCWVRQAPGKGLEWIACIGTTRGSTYYATWAKGRFTISKISSTTVTLQMTSLTDADTATYFCARDATGYRINTIGLYFNLWGPGTLVTVSSGQPKAPSVFPLAPCCGDTPSSTVTLGCLVKGYLPEPVTVTWNSGTLTNGVRTFPSVRQSSGLYSLSSVVSVTSSSQPVTCNVAHPATNTKVDKTVAPSTCSKPMCPPPELPGGPSVFIFPPKPKDTLMISRTPEVTCVVVDVSQDDPEVQFTWYINNEQVRTARPPLREQQFNSTIRVVSTLPIAHQDWLRGKEFKCKVHNKALPAPIEKTISKARGQPLEPKVYTMGPPREELSSRSVSLTCMINGFYPSDISVEWEKNGKAEDNYKTTPTVLDSDGSYFLYSKLSVPTSEWQRGDVFTCSVMHEALHNHYTQKSISRSPGK
light: MDTRAPTQLLGLLLLWLPGARCAFELTQTPSSVEAAVGGTPTIKCQASQTIYSYLSWYQQKPGQPPKLLIYEASKLASGVPSRFSGSGSGTDYTLTISDLECADAATYYCQSYHGTASTEYNTFGGGTEVVVRGDPVAPTVLIFPPAADQVATGTVTIVCVANKYFPDVTVTWEVDGTTQTTGIENSKTPQNSADCTYNLSSTLTLTSTQYNSHKEYTCKVTQGTTSVVQSFNRGDC
B3: 9-E16: mouse anti-α11β1 mAb; VH SEQ ID NO: 111, VL SEQ ID NO: 112 (antibody, V domains shown)
VH: EVQLQQSGPELVKPGASVKISCKASGYTFTDYYMHWVKQKPGQGLEWIGEIYPGSGNPYYNEKFKGKATLTADKSSSSAYMQLSSLTSEDSAVYFCARTSYGRVGTGFAYWGQGTLVTVSA
VL: NFVMTQTPLSLPVSLGDQASISCRSSQSLLHSNGNTYLHWYLQKPGQSPKLLIYKVSNRFSGVPDRFSGSGSGTDFTLKINRVETEDLGIYFCSQSSHVPTFGAGTKLELK
B4: 8-I14: mouse anti-α11β1 mAb; VH SEQ ID NO: 109, VL SEQ ID NO: 110 (antibody, V domains shown)
VH: EVQLQQSGPELVKPGASVKKSCKASGYTFTDYYMHWVKQKPGQGLEWIGKIYPGSGNTHYNEKFKGKATLTADKSSSTAYMQLSSLTSEDSAVYFCATNYYGYRAMNYWGQGSSVTVSS
VL: DIHLTQSPSSLSASLGERISLTCRASQDIYISLNWFQQKPDGTIKLLIYGTSSLDSGVPKRFSGSRSGSDYSLTISSLESEDFADYYCLQYASSPYTFGGGTKLEIK
B5: 8-J17: mouse anti-α11β1 mAb; VH SEQ ID NO: 113, VL SEQ ID NO: 114 (antibody, V domains shown)
VH: QVQLQQSGAELAKPGASVKMSCKASGYTFTNYWMHWVKQRPGQGLEWIGYINPNNGYTEYNQRFKDKATLTADRSSTTAYMQLSSLTSEDSAVYYCARSDIITTDYWGQGTTLTVSS
VL: DVVMTQTPLSLPVSLGDQASISCRSSQSLVYSNGNTYLHWYLQKPGQSPKLLIYKVSNRFSGVPDRFSGSGSGTDFTLKISRVEAEDLGVYFCSQSTHVPWTFGGGTKLEIK

Columns and labels:
human α11β1 = human α11β1 (Homo sapiens, UniProt Q9UKX5); assay: ELISA binding to recombinant human α11β1; conditions: binding Yes/No
Protocol: (§1) 0.25 μg/mL of target antigen (recombinant human or mouse α11β1) was plated in a 96-well plate over night at 4° C. Plates were washed (PBS with 0.1% Tween-20), blocked (PBS with 2% BSA and 0.05% Tween-20) for 1 hour at room temperature and incubated with a range of antibody concentrations for 1 hour at room temperature. Subsequently, plates were washed and incubated with biotinylated anti-rabbit/mouse/human IgG in a 1:1000 dilution buffer and incubated for 1 hour at room temperature. After washing the plates, Streptavidin HRP was added at 1:200 in dilution buffer and incubated for 1 hour at room temperature. Ultra TMB ELISA substrate solution was added and the plates incubated for 5 minutes on a plate shaker. The reaction was stopped by adding stop solution to each well and plates were read at 450 nm.

mouse α11β1 = mouse α11β1 (Mus musculus, UniProt P61622); assay: ELISA binding to recombinant mouse α11β1; conditions: for Murine α11β1 ELISA: binding Yes/No
Protocol: as §1

α1β1, α2β1 and/or α10β1 = assay: Counter-screen for cross-reactivity to other collagen receptors; type: binding, human; conditions: cross-reactivity to α1β1, α2β1, α10β1
Protocol: Wistar rats were immunized with recombinant human α11β1 protein. An enzyme-linked immunosorbent assay (ELISA) was used to test an immune response against target human and mouse proteins. Subsequently, cell fusion (by electro fusion) was performed with animals that produced a good immune response. All fused cells were plated in a 96-well plate and supernatants were screened by ELISA against soluble human and mouse α11β1. Positive clones were counter-screened against human α1β1, α2β1 and α10β1. […] Purified antibodies were then generated from the selected clones and heavy chain and light chain variable domain sequences were obtained from each purified antibody.
10 mice from 5 different strains were immunized with an appropriate mixture of human α11β1, mouse α11β1 and tolerance breaking protein. Plasma titers were evaluated by ELISA against a mixture of human and mouse α11β1. Popliteal, inguinal, and iliac lymph nodes were collected. ELISA-positive anti-human/mouse α11β1 hybridomas were expanded and subjected to a secondary screen against human and mouse α11β1, control HIS protein, and a counter-screen was performed against human […], α2β1 and α10β1. Supernatant IgG concentration was sufficient for functional screening. Selected hybridomas satisfying all the criteria were cloned and clonal hybridomas were confirmed by ELISA against human and mouse α11β1 and subsequently scaled-up and IgGs were purified. Heavy and light chain variable regions of selected hybridomas were then sequenced.
α11β1 belongs to a family of collagen receptors and has a relatively high homology to them. Therefore, the novel antibodies of this invention were counter-screened against α1β1, α2β1 and/or α10β1. Table 2 includes results of cross-reactivity to the other receptors.

I domain of α11β1 = target: T1, I domain of α11β1; assay: ELISA binding to in-house generated I domain of α11β1; conditions: for I Domain binding: Yes/No
Protocol: as §1
22 Data was also collected to determine whether antibodies of interest bind to the I domain of α11β1. An in-house generated I domain of α11β1 was used. […] Mouse antibodies 10-F23, 10-L15, 7-O8, 6-A12, 9-G05 and 9-E16 and rabbit antibodies 7-H12 and 2-D3 were also tested for binding against the in-house generated α11031 domain. FIGS. 3A and 3B show graphs illustrating binding data from exemplary mAbs.

[1] = system: human pulmonary fibroblasts (HPFs); assay: FACS antibody binding to human pulmonary fibroblasts; conditions: for HPF FACS: binding Yes/No
Protocol: (§2) Human Pulmonary Fibroblasts (ScienCell) were cultured in complete Fibroblast Growth Medium (ScienCell) until 80% confluent in T-150 flasks. Cells were washed and harvested using Accutase. Cells were seeded into T-150 flasks at 7,500 cells/cm^2 in complete FGF and cultured for 72 hours. Cells were then washed and starved in serum reduced medium for 24 hours. After starvation, cells were treated with TGFβ-1 (R&D Systems) for 72 hours. Cells were harvested using Accutase and seeded in 96-well conical bottom plates. Cells were blocked with Heat Inactived Fetal Bovine Serum (Gibco) for 30 minutes at 4° C. Cells were then incubated with anti-α11 antibodies at the doses described in each figure for 30 minutes at 4° C. A human anti-α11 antibody (Creative BioLabs) was included as a positive control as well as the appropriate IgG isotype negative controls. Cells were washed twice and incubated with PE conjugated secondary antibodies specific to the IgG class of the anti-α11 antibodies being tested for 30 minutes at 4° C. Cells were washed twice and fixed in 1% PFA for 30 minutes. Cells were acquired on a FACS Verse […]. Data were analyzed by gating on single cells and determining the geometric Mean Fluorescence Intensity (gMFI) in the PE channel for each sample.
(§3) Binding to a physiologically relevant primary human cell type was also tested. Human pulmonary fibroblasts (HPF) and TGFβ treatment were used to induce a fibroblast-to-myofibroblast transition (FMT), giving rise to myofibroblasts (MF). […] Additionally, HPFs express α11 and α2β1, other collagen binding receptors, which means that HPFs can be to test cross-reactivity of antibodies of interest.

myofibroblasts (MF) = assay: FACS antibody binding to myofibroblasts; parameters: species or system human; conditions: binding Yes/No
Protocol: as §2, §3

[2] = system: CHO-K1 cells expressing human α11; assay: Cell adhesion inhibition (xCelligence), type I collagen; type: cell-based; conditions: for inhibition of cell adhesion to type I collagen: CHO-K1 hu α11 cells; for Inhibition of CHO-K1 adhesion to collagen: Yes/No
Protocol: 0.6×10^6 cells/mL were incubated with each antibody at a range of concentrations for 20 minutes at 37° C. E-Plate VIEW 96 PET plate coated with 100 ng/mL type I collagen or PBS overnight at room temperature was blocked in 3% BSA for 1 house at room temperature. After washing the plate with PBS, cell and antibody mixture was added to the wells and the plate was places into an xCelligence machine. Cell adhesion was recorded over 6 hours. The time point of maximum cell adhesion was used for comparison relative to control.
A CHO-K1 hu α11 cell line was used to assess the ability of mAbs to block α11β1-mediated binding to type I collagen. […] In the “Untreated” condition, cells were plated on type I collagen but no antibody was added and in the “Uncoated” condition, cells were seeded onto BSA-coated wells containing no type I collagen. Statistics were performed using one-way ANOVA followed by Dunnett's multiple comparisons test. […] Therefore, it is possible that these mAbs bind on an α11β1 domain that keeps the integrin in a low or intermediate affinity state. […] Nine human mAbs were also tested for their ability to inhibit the binding of human CHO-α11 cells to type I collagen.

human α11β1, sequence (Q9UKX5 23-1141 limits assumed): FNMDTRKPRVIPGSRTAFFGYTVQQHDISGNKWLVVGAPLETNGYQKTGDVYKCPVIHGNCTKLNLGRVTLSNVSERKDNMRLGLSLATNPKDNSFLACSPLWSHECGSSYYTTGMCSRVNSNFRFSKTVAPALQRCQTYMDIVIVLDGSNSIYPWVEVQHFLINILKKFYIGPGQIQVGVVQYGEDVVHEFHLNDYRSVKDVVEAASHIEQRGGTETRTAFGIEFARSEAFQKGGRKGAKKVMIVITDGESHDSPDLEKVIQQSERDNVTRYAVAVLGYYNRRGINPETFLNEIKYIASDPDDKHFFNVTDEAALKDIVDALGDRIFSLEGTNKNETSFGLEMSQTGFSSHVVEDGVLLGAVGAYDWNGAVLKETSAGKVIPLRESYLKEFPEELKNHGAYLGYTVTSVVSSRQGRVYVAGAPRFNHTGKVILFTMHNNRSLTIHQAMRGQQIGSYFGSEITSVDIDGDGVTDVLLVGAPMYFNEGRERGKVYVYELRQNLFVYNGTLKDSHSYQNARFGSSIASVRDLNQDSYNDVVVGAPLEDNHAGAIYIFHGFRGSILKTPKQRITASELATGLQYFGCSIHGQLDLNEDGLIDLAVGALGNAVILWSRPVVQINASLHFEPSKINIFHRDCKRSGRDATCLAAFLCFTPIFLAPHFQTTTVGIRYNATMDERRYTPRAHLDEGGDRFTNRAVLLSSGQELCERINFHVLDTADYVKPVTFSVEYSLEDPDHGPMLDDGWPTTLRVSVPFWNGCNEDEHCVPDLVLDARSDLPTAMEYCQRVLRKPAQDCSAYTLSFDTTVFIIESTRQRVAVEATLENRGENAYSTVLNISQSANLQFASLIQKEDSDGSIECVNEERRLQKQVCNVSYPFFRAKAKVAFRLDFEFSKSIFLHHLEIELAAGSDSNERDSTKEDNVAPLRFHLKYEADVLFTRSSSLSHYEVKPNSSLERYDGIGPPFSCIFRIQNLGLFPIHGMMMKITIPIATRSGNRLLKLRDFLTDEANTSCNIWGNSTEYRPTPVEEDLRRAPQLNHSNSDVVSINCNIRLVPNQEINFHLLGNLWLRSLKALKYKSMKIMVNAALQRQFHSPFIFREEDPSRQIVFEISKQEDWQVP
human α11β1, sequence (P05556 21-728 partner limits assumed): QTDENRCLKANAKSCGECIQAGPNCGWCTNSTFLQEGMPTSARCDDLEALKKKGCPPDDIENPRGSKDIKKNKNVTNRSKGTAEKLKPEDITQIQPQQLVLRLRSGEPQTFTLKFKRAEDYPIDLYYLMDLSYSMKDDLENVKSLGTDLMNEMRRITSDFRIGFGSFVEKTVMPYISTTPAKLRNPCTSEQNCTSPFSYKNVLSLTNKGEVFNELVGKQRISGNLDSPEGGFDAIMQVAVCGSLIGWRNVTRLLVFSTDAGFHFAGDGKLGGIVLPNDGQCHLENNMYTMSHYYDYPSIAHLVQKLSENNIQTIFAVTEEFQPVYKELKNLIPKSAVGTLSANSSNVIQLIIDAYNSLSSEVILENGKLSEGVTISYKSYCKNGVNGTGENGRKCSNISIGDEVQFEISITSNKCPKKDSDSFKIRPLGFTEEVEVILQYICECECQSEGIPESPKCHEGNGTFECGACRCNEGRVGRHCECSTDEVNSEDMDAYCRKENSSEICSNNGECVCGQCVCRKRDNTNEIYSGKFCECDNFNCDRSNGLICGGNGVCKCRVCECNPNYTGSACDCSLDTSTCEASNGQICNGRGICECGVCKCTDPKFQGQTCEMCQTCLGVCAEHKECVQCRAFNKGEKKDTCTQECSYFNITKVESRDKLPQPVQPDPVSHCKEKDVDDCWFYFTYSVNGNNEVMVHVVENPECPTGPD
mouse α11β1, sequence (P61622 23-1141 limits assumed): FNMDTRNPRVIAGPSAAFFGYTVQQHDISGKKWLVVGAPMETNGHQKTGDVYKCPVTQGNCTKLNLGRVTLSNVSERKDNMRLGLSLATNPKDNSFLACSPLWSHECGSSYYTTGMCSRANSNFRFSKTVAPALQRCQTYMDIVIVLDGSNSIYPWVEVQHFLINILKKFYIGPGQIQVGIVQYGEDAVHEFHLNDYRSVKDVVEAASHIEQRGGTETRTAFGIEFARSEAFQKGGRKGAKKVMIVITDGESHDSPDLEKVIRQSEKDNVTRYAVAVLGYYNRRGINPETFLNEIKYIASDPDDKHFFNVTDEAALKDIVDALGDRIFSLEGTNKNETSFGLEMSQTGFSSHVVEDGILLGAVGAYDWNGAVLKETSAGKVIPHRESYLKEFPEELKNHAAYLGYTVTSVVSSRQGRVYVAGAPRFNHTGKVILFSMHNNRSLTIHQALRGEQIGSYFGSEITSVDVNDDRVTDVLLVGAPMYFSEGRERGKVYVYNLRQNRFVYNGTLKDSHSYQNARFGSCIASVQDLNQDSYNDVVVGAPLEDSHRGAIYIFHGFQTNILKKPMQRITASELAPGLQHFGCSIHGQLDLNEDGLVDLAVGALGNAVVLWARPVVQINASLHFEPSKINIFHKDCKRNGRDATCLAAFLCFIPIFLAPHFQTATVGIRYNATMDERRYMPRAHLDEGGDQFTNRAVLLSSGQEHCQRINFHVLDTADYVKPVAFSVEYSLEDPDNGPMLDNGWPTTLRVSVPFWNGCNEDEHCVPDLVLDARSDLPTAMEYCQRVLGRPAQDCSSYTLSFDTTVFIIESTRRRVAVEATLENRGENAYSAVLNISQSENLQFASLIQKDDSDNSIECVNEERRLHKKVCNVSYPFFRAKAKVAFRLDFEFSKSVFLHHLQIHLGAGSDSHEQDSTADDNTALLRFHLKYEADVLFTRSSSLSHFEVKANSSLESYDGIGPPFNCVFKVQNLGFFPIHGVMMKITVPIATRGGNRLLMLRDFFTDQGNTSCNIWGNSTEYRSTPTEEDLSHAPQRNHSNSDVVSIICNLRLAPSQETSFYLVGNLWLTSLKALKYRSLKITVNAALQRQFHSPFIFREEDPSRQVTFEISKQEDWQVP
mouse α11β1, sequence (P09055 21-728 partner limits assumed): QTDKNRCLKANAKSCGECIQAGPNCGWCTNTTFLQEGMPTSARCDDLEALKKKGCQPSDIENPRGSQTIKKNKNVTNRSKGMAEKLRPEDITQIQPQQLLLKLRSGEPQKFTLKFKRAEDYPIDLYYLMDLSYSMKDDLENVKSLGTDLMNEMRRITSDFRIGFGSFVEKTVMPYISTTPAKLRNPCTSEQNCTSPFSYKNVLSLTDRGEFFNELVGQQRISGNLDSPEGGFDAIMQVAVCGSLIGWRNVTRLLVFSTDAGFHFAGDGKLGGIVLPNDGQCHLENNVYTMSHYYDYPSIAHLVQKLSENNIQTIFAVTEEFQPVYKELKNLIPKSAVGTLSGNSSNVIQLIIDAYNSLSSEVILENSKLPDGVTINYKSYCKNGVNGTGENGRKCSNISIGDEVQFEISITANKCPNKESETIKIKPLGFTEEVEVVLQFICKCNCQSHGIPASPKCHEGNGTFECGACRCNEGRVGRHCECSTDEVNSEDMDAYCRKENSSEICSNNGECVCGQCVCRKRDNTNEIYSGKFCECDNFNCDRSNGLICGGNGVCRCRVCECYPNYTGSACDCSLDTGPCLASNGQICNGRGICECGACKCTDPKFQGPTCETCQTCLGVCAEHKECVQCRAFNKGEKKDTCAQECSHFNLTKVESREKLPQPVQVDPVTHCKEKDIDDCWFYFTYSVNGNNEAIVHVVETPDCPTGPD

Row | Molecule | Human α11β1 ELISA (human α11β1) | Murine α11β1 ELISA (mouse α11β1) | Off Target (α1β1, α2β1 and/or α10β1) | I-domain binder (I domain of α11β1) | I Domain binding (I domain of α11β1) | HPF FACS [1] | MF FACS (myofibroblasts (MF)) | inhibition of cell adhesion to type I collagen [2] | Inhibition of CHO-K1 adhesion to collagen [2] | binding to mouse α11β1 (mouse α11β1) | binding to HPFs ([1]; FACS)
1 | B1 | Yes | Yes | No | I domain binders; also recorded: I-domain binders; also recorded: bound the I domain | Yes | No | Yes | significantly blocked cell adhesion; also recorded: decrease cell adhesion | Yes |  | 
2 | B2 | Yes | No | No |  | No | No | Yes | inhibit both ligand binding and FMT | Yes | does not bind mouse α11β1 | 
3 | B3 | Yes | Yes | No | I domain binders; also recorded: I-domain binders; also recorded: bound the I domain | Yes | Low | Yes | significantly blocked cell adhesion; also recorded: decrease cell adhesion | Yes |  | some HPF binding
4 | B4 | Yes | Yes | No |  | No | No | Yes |  | No |  | 
5 | B5 | Yes | No | Yes |  | No | No | Yes | did not block cell adhesion; also recorded: had effect on ligand binding | No |  | 
